Results from US5985599.

What was measured:
[1] = target: dimeric human IgG1 (myeloma protein, chemically cross-linked) (human) [IgG part: P01857]; assay: direct binding of 125I-dimeric hIgG1 to transfected COS-7 cells, corrected for expression
[2] = target: dimeric human IgG1 (myeloma protein, chemically cross-linked) (human) [IgG part: P01857]; assay: direct binding of 125I-dimeric human IgG1 to transfected COS-7 cells
[3] = target: mouse beta1 Fc(gamma)R encoded by pFc113 (mouse); assay: sheep anti-mouse Ig rosetting on the cells of Table 5

Substance | percent binding compared to wild-type FcγRII (percent of wild-type) [1] | other results
FcγRII Arg/His131-Ala (receptor) | 21.9 | percent decrease of hIgG1-dimer binding [1]: 80%
FcγRII Asp133-Ala (receptor) | 114 | –
FcγRII Leu159-Ala (receptor) | – | Ka [2]: 1e+07 M⁻¹; fold increase of binding over wild-type FcγRII [2]: 10 fold
FcγRII Phe160-Ala (receptor) | – | Ka [2]: 1e+07 M⁻¹; fold increase of binding over wild-type FcγRII [2]: 10 fold
FcγRII Pro114-Ala (receptor) | 53.5 | –
human FcγRII (wild-type FcγRIIa) encoded by HFc3.0 (receptor) | – | Ka [2]: 1e+06 M⁻¹
irrelevant antibody (background control of Table 5) | – | % rosette formation (background) [3]: < 5%

Continued, in another order:

percent binding compared to wild-type FcγRII (percent of wild-type) [1] | Substance | other results
20.6 | FcγRII Leu115-Ala (receptor) | –
15.9 | FcγRII Lys113-Ala (receptor) | –
8.2 | FcγRII Phe129-Ala (receptor) | percent decrease of hIgG1-dimer binding [1]: > 90%
134 | FcγRII Pro134-Ala (receptor) | –
73.5 | FcγRII Val116-Ala (receptor) | –
